Experimental data reported in FireProtDB (doi:10.1021/bi00123a002).
“And” between values parts separate entries of the source, which are not always exact repeats. Identical values can stand only once.

B1: Tryptophan synthase alpha chain, P00929 (parent)
chain: MERYENLFAQLNDRREGAFVPFVTLGDPGIEQSLKIIDTLIDAGADALELGVPFSDPLADGPTIQNANLRAFAAGVTPAQCFEMLALIREKHPTIPIGLLMYANLVFNNGIDAFYARCEQVGVDSVLVADVPVEESAPFRQAALRHNIAPIFICPPNADDDLLRQVASYGRGYTYLLSRSGVTGAENRGALPLHHLIEKLKEYHAAPALQGFGISSPEQVSAAVRAGAAGAISGSAIVKIIEKNLASPKQMLAELRSFVSAMKAASRA

Variants of: B1
Settings: Salmonella typhimurium (strain LT2 / SGSC1412 / ATCC 700720), pH 7.8, 25 °C, Urea, CD, Potassium phosphate 10 mM, reversible: yes, structure 2WSY, whole UniProt chain shown

With MERYENLFAQLNDRREGAFVPVVTLGDPGIEQSLKIIDTLIDAGADALELGVPFSDPLADGPTIQNANLRAFAAGVTPAQCFEMLALIREKHPTIPIGLLMYANLVFNNGIDAFYARCEQVGVDSVLVADVPVEESAPFRQAALRHNIAPIFICPPNADDDLLRQVASYGRGYTYLLSRSGVTGAENRGALPLHHLIEKLKEYHAAPALQGFGISSPEQVSAAVRAGAAGAISGSAIVKIIEKNLASPKQMLAELRSFVSAMKAASRA [F22V] the “ddG of mutation (higher = less stable)” value was 14.4 kJ/mol, the unfolding free energy was 40.7 kJ/mol and the “ddG of mutation (higher = less stable)” value (transition: 3) was -0.251 kJ/mol. For the same variant, the denaturant m value (transition: 3) was 1.74 kcal/mol/M, the “denaturant midpoint (higher = more stable)” value (shortened to “denaturant midpoint”) (transition: 3) was 3.3 M and the unfolding free energy (transition: 3) was 24.6 kJ/mol.

With MERYENLFAQLNDRREGAFVPLVTLGDPGIEQSLKIIDTLIDAGADALELGVPFSDPLADGPTIQNANLRAFAAGVTPAQCFEMLALIREKHPTIPIGLLMYANLVFNNGIDAFYARCEQVGVDSVLVADVPVEESAPFRQAALRHNIAPIFICPPNADDDLLRQVASYGRGYTYLLSRSGVTGAENRGALPLHHLIEKLKEYHAAPALQGFGISSPEQVSAAVRAGAAGAISGSAIVKIIEKNLASPKQMLAELRSFVSAMKAASRA [F22L] the “ddG of mutation (higher = less stable)” value was 4.39 kJ/mol, the unfolding free energy was 50.7 kJ/mol and the denaturant m value (transition: 3) was 2.96 kcal/mol/M and 1.7 kcal/mol/M. For the same variant, the “denaturant midpoint” value (transition: 3) was 2.1 M and 3.3 M and the unfolding free energy (transition: 3) was 26.7 kJ/mol and 24 kJ/mol.

With MERYENLFAQLNDRREGAFVPIVTLGDPGIEQSLKIIDTLIDAGADALELGVPFSDPLADGPTIQNANLRAFAAGVTPAQCFEMLALIREKHPTIPIGLLMYANLVFNNGIDAFYARCEQVGVDSVLVADVPVEESAPFRQAALRHNIAPIFICPPNADDDLLRQVASYGRGYTYLLSRSGVTGAENRGALPLHHLIEKLKEYHAAPALQGFGISSPEQVSAAVRAGAAGAISGSAIVKIIEKNLASPKQMLAELRSFVSAMKAASRA [F22I] the “ddG of mutation (higher = less stable)” value was 19.2 kJ/mol, the unfolding free energy was 35.9 kJ/mol and the denaturant m value (transition: 3) was 1.57 kcal/mol/M and 1.51 kcal/mol/M. The “denaturant midpoint” value (transition: 3) was 2 M and 3.6 M and the unfolding free energy (transition: 3) was 13.2 kJ/mol and 22.7 kJ/mol.
